Data on 1 molecule can be found in patent US20140243268A1 (GEORGIA REGENTS RESEARCH INSTITUTE, published 2014).

The target of this test is T1, ErbB2 (UniProt P04626 23-1255, limits assumed).
T1 construct: also called Her2; HER2
Briefly: not described (data not shown).

B1: Erbin1-693βgal, fusion protein containing the N-terminal 693 aa residues of Erbin and β-galactosidase (other, mouse, UniProt Q80TH2 1-693, looked up)
chain: MTTKRSLFVRLVPCRCLRGEEETVTTLDYSHCSLEQVPKEIFTFEKTLEELYLDANQIEELPKQLFNCQSLHKLSLPDNDLTTLPASIANLINLRELDVSKNGIQEFPENIKNCKVLTIVEASVNPISKLPDGFSQLLNLTQLYLNDAFLEFLPANFGRLTKLQILELRENQLKMLPKTMNRLTQLERLDLGSNEFTEVPEVLEQLSGLREFWMDGNRLTFIPGFIGSLRQLTYLDVSKNNIEMVEEGISTCENLQDFLLSSNSLQQLPETIGSLKNVTTLKIDENQLMYLPDSIGGLRSIEELDCSFNEIEALPSSIGQLTNMRTFAADHNYLQQLPPEIGNWKNITVLFLHCNKLETLPEEMGDMQKLKVINLSDNRLKNLPFSFTKLQQLTAMWLSDNQSKPLIPLQKETDTETQKMVLTNYMFPQQPRTEDVMFISDNESFNPALWEEQRKQRAQVAFECDEDKDEREAPPREGNLKRYPTPYPDELKNMVKTVQTIVHRLKDEETNEESGRDLKQHEDQQVVNKDKCVKTSESTTTKSKLDEREKYMNSVQKMSEPEAETNGGNLPVTASMKLSGNLKHIVNHDDVFEESEELSSDEEMKMAEMRPPLIESSINQPKVVALSNNKKDDAKDADSLSDEVTHNSNQNNSNCSSPSRMSDSVSLNTDSSQDTSLCSPVKQTPVDSNSKVR
notes: Expressed in erbin ΔC/ΔC mice; lacks residues 694-1450 of mouse Erbin, including the PDZ domain; not shown: β-galactosidase encoded by the inserted lacZ gene
For the molecule B1, the binding result is listed as “no binding”.
